The values that follow come from article PMC10527876.

This assay has as its target human CYP2D6 (human) (UniProt P10635).
Chain of UniProt P10635 (P10635 whole entry): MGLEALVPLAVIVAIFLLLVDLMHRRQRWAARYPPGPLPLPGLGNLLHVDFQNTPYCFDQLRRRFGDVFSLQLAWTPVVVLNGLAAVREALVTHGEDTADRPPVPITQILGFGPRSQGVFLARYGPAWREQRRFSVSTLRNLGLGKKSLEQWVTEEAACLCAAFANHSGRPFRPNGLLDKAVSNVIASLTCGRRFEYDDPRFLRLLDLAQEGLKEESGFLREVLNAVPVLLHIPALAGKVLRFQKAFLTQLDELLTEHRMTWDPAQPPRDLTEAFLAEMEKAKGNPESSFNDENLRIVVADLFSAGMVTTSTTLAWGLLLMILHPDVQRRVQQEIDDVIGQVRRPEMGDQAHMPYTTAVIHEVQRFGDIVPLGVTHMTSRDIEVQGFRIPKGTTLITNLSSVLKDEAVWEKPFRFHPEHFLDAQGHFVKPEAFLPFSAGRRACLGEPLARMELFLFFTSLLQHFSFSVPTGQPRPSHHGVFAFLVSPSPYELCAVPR

B1: human UGT1A8 (enzyme)
chain: GKLLVVPMDGSHWFTMQSVVEKLILRGHEVVVVMPEVSWQLGKSLNCTVKTYSTSYTLEDLDREFMDFADAQWKAQVRSLFSLFLSSSNGFFNLFFSHCRSLFNDRKLVEYLKESSFDAVFLDPFDACGLIVAKYFSLPSVVFARGIACHYLEEGAQCPAPLSYVPRILLGFSDAMTFKERVRNHIMHLEEHLFCQYFSKNALEIASEILQTPVTAYDLYSHTSIWLLRTDFVLDYPKPVMPNMIFIGGINCHQGKPLPMEFEAYINASGEHGIVVFSLGSMVSEIPEKKAMAIADALGKIPQTVLWRYTGTRPSNLANNTILVKWLPQNDLLGHPMTRAFITHAGSHGVYESICNGVPMVMMPLFGDQMDNAKRMETKGAGVTLNVLEMTSEDLENALKAVINDKSYKENIMRLSSLHKDRPVEPLDLAVFWVEFVMRHKGAPHLRPAAHDLTWYQYHSLDVIGFLLAVVLTVAFITFKCCAYGYRKCLGKKGRVKKAHKSKTH
In turn, B1 returned a production of 4-hydroxypropranolol from propranolol by CYP2D6 in co-expressing enzyme bags (SAN307), against the CYP2D6 control strain SAN300 of 2.1 fold and a production of 5-hydroxypropranolol from propranolol by CYP2D6 in co-expressing enzyme bags (SAN307), against the CYP2D6 control strain SAN300 of 4.8 fold.

B2: human UGT1A7 (enzyme)
chain: GKLLVVPMDGSHWFTMQSVVEKLILRGHEVVVVMPEVSWQLGRSLNCTVKTYSTSYTLEDQDREFMVFADARWTAPLRSAFSLLTSSSNGIFDLFFSNCRSLFNDRKLVEYLKESCFDAVFLDPFDACGLIVAKYFSLPSVVFARGIFCHYLEEGAQCPAPLSYVPRLLLGFSDAMTFKERVWNHIMHLEEHLFCPYFFKNVLEIASEILQTPVTAYDLYSHTSIWLLRTDFVLEYPKPVMPNMIFIGGINCHQGKPVPMEFEAYINASGEHGIVVFSLGSMVSEIPEKKAMAIADALGKIPQTVLWRYTGTRPSNLANNTILVKWLPQNDLLGHPMTRAFITHAGSHGVYESICNGVPMVMMPLFGDQMDNAKRMETKGAGVTLNVLEMTSEDLENALKAVINDKSYKENIMRLSSLHKDRPVEPLDLAVFWVEFVMRHKGAPHLRPAAHDLTWYQYHSLDVIGFLLAVVLTVAFITFKCCAYGYRKCLGKKGRVKKAHKSKTH
As to B2, the production of 4-hydroxypropranolol from propranolol by CYP2D6 in co-expressing enzyme bags (SAN306), against the CYP2D6 control strain SAN300 was 3.3 fold and the production of 5-hydroxypropranolol from propranolol by CYP2D6 in co-expressing enzyme bags (SAN306), against the CYP2D6 control strain SAN300 was 8.4 fold.

B3: human UGT1A9 (enzyme)
chain: GKLLVVPMDGSHWFTMRSVVEKLILRGHEVVVVMPEVSWQLGRSLNCTVKTYSTSYTLEDLDREFKAFAHAQWKAQVRSIYSLLMGSYNDIFDLFFSNCRSLFKDKKLVEYLKESSFDAVFLDPFDNCGLIVAKYFSLPSVVFARGILCHYLEEGAQCPAPLSYVPRILLGFSDAMTFKERVRNHIMHLEEHLLCHRFFKNALEIASEILQTPVTEYDLYSHTSIWLLRTDFVLDYPKPVMPNMIFIGGINCHQGKPLPMEFEAYINASGEHGIVVFSLGSMVSEIPEKKAMAIADALGKIPQTVLWRYTGTRPSNLANNTILVKWLPQNDLLGHPMTRAFITHAGSHGVYESICNGVPMVMMPLFGDQMDNAKRMETKGAGVTLNVLEMTSEDLENALKAVINDKSYKENIMRLSSLHKDRPVEPLDLAVFWVEFVMRHKGAPHLRPAAHDLTWYQYHSLDVIGFLLAVVLTVAFITFKCCAYGYRKCLGKKGRVKKAHKSKTH
The molecule B3 gave a production of 4-hydroxypropranolol from propranolol by CYP2D6 in co-expressing enzyme bags (SAN308), against the CYP2D6 control strain SAN300 of 2.8 fold and a production of 5-hydroxypropranolol from propranolol by CYP2D6 in co-expressing enzyme bags (SAN308), against the CYP2D6 control strain SAN300 of 5.8 fold.
